Test results: the supplement of paper PMC11908140

B1: library; numbered along this chain (parent)
chain: MRKPRAAVGSGHRKQAASQEGRQKHAKNNSQAKPSACDGLARQPEEVVLQASVSSYHLFRDVAEVTAFRGSLLSWYDQEKRDLPWRRRAEDEMDLDRRAYAVWVSEVMLQQTQVATVINYYTGWMQKWPTLQDLASASLEEVNQLWAGLGYYSRGRRLQEGARKVVEELGGHMPRTAETLQQLLPGVGRYTAGAIASIAFGQATGVVDGNVARVLCRVRAIGADPSSTLVSQQLWGLAQQLVDPARPGDFNQAAMELGATVCTPQRPLCSQCPVESLCRARQRVEQEQLLASGSLSGSPDVEECAPNTGQCHLCLPPSEPWDQTLGVVNFPRKASRKPPREESSATCVLEQPGALGAQILLVQRPNSGLLAGLWEFPSVTWEPSEQLQRKALLQELQRWAGPLPATHLRHLGEVVHTFSHIKLTYQVYGLALEGQTPVTTVPPGARWLTQEEFHTAAVSTAMKKVFRVYQGQQPGTCMGSKRSQVSSPCSRKKPRMGQQVLDNFFRSHISTDAHSLNSAAQ

Variants of: B1
Experiment: 8OG:A repair function score (normalized; synonymous = 0, nonsense = -1) (normalized log-likelihood score); higher = more repair activity (WT-like)
Details: with 8OG:A DNA repair reporter (GFP) in HEK-293 MUTYH KO cells
Procedure, shortened: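 With 10 pg/ml doxycycline, MUTYH knockout HEK-293 cells carrying lentiviral MUTYH cDNA NNN codon-scan libraries were co-transfected with mCherry and an 8OG:A GFP repair reporter. Viable mCherry+ cells were sorted into GFP+ (repair) and GFP− bins at 72 h, three replicates per tile, and tile amplicons were sequenced. Per-tile Rosace fitness scores were then normalized into a repair function score anchored on synonymous and nonsense distributions. Medians were fixed at 0 for synonymous and -1 for nonsense, excluding variants under 300 counts per million at the start.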

8OG:A repair function score, by site and new letter:
R491: C -0.013, Y -0.0848, W -0.00998, V 0.0088, M 0.0281, N -0.0106, T 0.0121, D 0.0052, G 0.00614, F 0.0113, L -0.00252, P -0.0953, S 0.00574, K 0.0262, A 0.00371, H 0.0282, I 0.0211, E 0.0286, Q -0.00572
K481: Y -0.0542, L -0.0084, S -0.00188, R 0.0229, N -2.28e-05, I 0.000486, M -0.00967, V -0.0202, P 0.00979, W -0.0431, Q -0.00252, T -0.0524
Q484: C -0.0119, E 0.022, W 0.00872, G 0.00288, T 0.0125, F -0.005, Y 0.00945, D -0.0184, S -0.0175, I -0.0366, A 0.00718, V -0.0109, N 0.0201, R 0.00822, H 0.0028, K 0.0117, M 0.0126, P 0.0115, L 0.00769
P494: E 0.0133, L -0.00201, S -0.00543, A 0.0124, V -0.0025, C 0.0281, H 0.015, I 0.0172, M -0.0511, W -0.0155, F -0.0209, Q -0.000555, Y -0.00726, N 0.0224, D -0.00383, R 0.00547, K -0.0663, T 0.0124, G -0.0242
V485: C 0.0143, F 0.0143, H 0.0165, R 0.0173, D 0.0102, I 0.0128, L 0.0118, W -0.0552, E -0.0478, Y -0.0379, P -0.0106, G -0.0147, K -0.00358, N -0.00234, Q -0.0322, M 0.0202, S 0.0216, A -0.00727, T 0.00314
S490: T 0.0117, H -0.00447, P -0.0172, Q 0.0011, G -0.0115, A -0.00415, K 0.00805, W -0.0113, F -0.0204, M -0.0481, C -0.0291, V -0.0138, R 0.00301, E -0.0309, L 0.0149, D -0.0147, Y -0.00381, N 0.0157, I -0.0509
S486: F 0.00694, V -0.00598, C -0.016, L 0.00981, H 0.026, T 0.0101, M -0.00979, G 0.0224, A 0.00239, E 0.0262, K -0.0131, Y 0.00541, I -0.0359, W 0.0129, P 0.0275, R -0.0146, Q -0.0168, D 0.00623, N 0.00666
G497: S -0.0201, T -0.00191, K 0.0129, M -0.0577, I -0.0179, W 0.0164, R -0.0166, D -0.0474, P -0.0806, N 0.0269, V -0.00253, C -0.127, L -0.0147, A -0.0723, E 0.00606, H -0.0394, Y -0.0861, F -0.0315
K493: D 0.0108, I -0.0174, H 0.0281, N 0.0279, L -0.025, S 0.0155, W 0.00262, R -0.00709, G 0.0135, A 0.0129, M -0.00762, C -0.00147, F -0.0124, E 0.0199, T 0.0143, P 0.0123, Q -0.107, Y 0.00504, V -0.0351
S487: P -0.0175, F -0.00307, H 0.00963, Y 0.00217, V 0.0175, G -0.00491, N 0.0119, I -0.00284, E 0.00844, D 0.0137, C 0.0168, R 0.0273, T -0.0203, L -5.82e-05, A 0.0181, K 0.0147, M 0.0121, Q -0.00246, W -0.00878
Q499: A -0.02
R482: P 0.0273, V 0.00231, T -0.0344, G 0.0105, S 0.0216, A 0.0234, E 0.00949, I -0.00811, W 0.0248, Y 0.0178, K 0.021, C 0.0254, F 0.0283, L 0.00831, Q 0.0234, D -0.000963, N -0.0127, M -0.00466, H -0.0234
C489: N 0.0265, V -0.0255, M 0.00595, E 0.0219, R -0.0027, G 0.00751, L 0.0177, K -0.0226, I -0.0718, Y 0.00164, P -0.00598, D 0.013, A -0.00252, H 0.0276, F -0.0128, S 0.0134, W 0.0227, T 0.00493, Q -0.0376
S483: N 0.0224, E -0.0311, V 0.0104, G -0.0331, L 0.00323, D 0.0208, W -0.033, C 0.025, Y -0.0745, F 0.0169, T -0.0473, I -0.00113, P 0.0199, R 0.0251, H 0.00458, M -0.00708, A 0.00092, K -0.04
M496: T -0.0187, C -0.00499, R 0.0258, E 0.00855, H 0.0281, A 0.0241, G -0.00643, L -0.0124, P -3.86e-05, F 0.0105, W -0.045, Q -0.106, I -0.0358, S -0.0675, K 0.00764, N 0.00145, Y 0.00737, D 0.00779, V -0.0328
R495: A -0.0255, L 0.017, H 0.00173, N -0.129, C -0.00275, Y -0.0924, G -0.0152, K 0.00711, E 0.0282, T 0.0177, P 0.0276, I -0.0255, D 0.0213, F -0.0118, S 0.013, V 0.0193, W 0.0272, M 0.0166, Q -0.0181
P488: E -0.0239, W -0.00344, T 0.00629, K 0.0286, N 0.00623, D -0.00371, Y -0.0629, F -0.042, S 0.00249, L 0.00539, I 0.0151, H 0.0202, C -0.0233, M -0.0122, G 0.0021, Q -0.00562, V -0.00252, A -0.0161, R 0.0168
Q498: S 0.0168, V 0.00262, I 0.0195, Y 0.0174, H -0.0117, R 0.0169, K -0.00149, W 0.0137, A 0.011, G 0.0187, D 0.00936, M -0.0277, C -0.0114, E 0.0145, T 0.0263, F -0.0629, N -0.0368, P -0.0275, L -0.00389
K492: G -0.00555, C 0.0201, I 0.0148, R -0.0207, D -0.0117, L -0.0333, N -0.00159, Q 0.0192, V -0.0261, E 0.022, P 0.0192, M 0.015, Y -0.0316, H -0.0225, F -0.0038, S -0.0044, T -0.00293, W 0.0127, A 0.0165
